A short description of data set [1]: pH-dependent interaction of HA-pHLIP agents with POPC liposomes (tryptophan fluorescence). It is filed as physicochemical. Conditions: 7 μM agent, 25°C; for cooperativity (n) of state II to state III transition / mid-point (pK) of state II to state III transition: pH-dependent insertion into POPC liposome bilayer, shift of fluorescence maximum vs pH, Henderson-Hasselbalch fit; for cooperativity (n) of state II to state III transition / mid-point (pK) of state II to state III transition / λmax in state III / λmax in state II: 1.4 mM POPC; for λmax in state I / λmax in state III / λmax in state II: position of tryptophan fluorescence maximum, excitation 295 nm; for λmax in state I: HA-pHLIP in solution at pH8; for λmax in state III: HA-pHLIP with POPC liposomes at pH3 (membrane-inserted); for λmax in state II: HA-pHLIP with POPC liposomes at pH8 (membrane-adsorbed).

Data set [2] concerns murine mammary carcinoma 4T1 cells. Put plainly: Treatment with HA-pHLIP agents in 4T1 tumor mouse model. It counts as in vivo. As to conditions: 4T1 flank tumors in BALB/c mice immunized with KLH-HA/CFA and KLH-HA/IFA; IP 40–60 µM 400 μl every second day from day 3 or 4; tumors weighed typically days 17–19; mean of control group = 100%.
Data set [3] relates to murine melanoma B16F10 cells. The data set can be described thus: Treatment with Gal-pHLIP in B16F10 tumor model in A3galt2 knockout mice. It counts as in vivo, mouse. Conditions: B16F10 tumors in A3galt2 knockout mice immunized with HSA-Gal/CFA and HSA-Gal/IFA; IP 80 μM 450 μl each day for 10 days; tumors weighed day 12; versus untreated control; statistically significant. The procedure: A3galt2 knockout female and male mice were immunized by IP injection of Galα1-3Galβ-4Glc-HSA (HSA-Gal) (Dextra Laboratories) (day 1) (HSA is human serum albumin), at a concentration of 0.2 mg/ml emulsified at a ratio 1:1 with CFA. On days 14 and 21 after the first immunization, mice were boosted by IP injection of 200 μl of HSA-Gal (0.2 mg/ml) emulsified at a ratio 1:1 with IFA.
A3galt2 knockout female and male mice immunized with HSA-Gal and CFA/IFA adjuvants received a single SQ injection of 10^6 murine melanoma B16F10 cells (ATCC CRL-6475) in the right flank on day 1. On day 2, mice were randomized into groups and tri-Gal-pHLIP was administered via IP injections each day (80 μM 450 μl per injection). […] All mice in the control and treated groups were euthanized on day 12, tumors were collected and weighed.
The Kolmogorov-Smirnov two-tailed non-parametric test was used to compare two samples at a significance level of 0.05.

Data set [4] concerns murine melanoma B16F10 cells. Conditions: B16F10 flank tumors in BALB/c mice immunized with 2 injections of KLH-HA/AddaVax; IP 40 μM 400 μl on days 1, 2 and 3 from about 100 mm^3; tumors weighed day 7; mean of control group = 100%.
In the next data set the test system is anti-HA antibodies. Conditions: mouse, in vivo, ip.

For the substance “(Az)GGKGGGK[HA-Peg12]PWRAYLELLFPTETLLLELLLA [HA-Peg12-pHLIP4, v2, single HA-Peg12 on second Lys of pHLIP4]”, in data set [1], the “cooperativity (n) of state II to state III transition” value (from here on “cooperativity (n) of state II”) is 2.2, the “mid-point (pK) of state II to state III transition” value (from here on “mid-point (pK) of state II”) amounted to 6.8, the “λmax in state I” value worked out at 348 nm and the “λmax in state III” value amounted to 337 nm. The “λmax in state II” value in data set [1] was determined as 343 nm.
Taken in the same sequence, the figures for “(Az)GGK[HA-Peg12]GGGKPWRAYLELLFPTETLLLELLLA [HA-Peg12-pHLIP4, v1, single HA-Peg12 on first Lys of pHLIP4]” were 1.7, 6.4, 347 nm, 337 nm and 343 nm.
As for “(Az)GGK[HA-Peg12]GGGK[HA-Peg12]PWRAYLELLFPTETLLLELLLA [2(HA-Peg12)-pHLIP4]”, in data set [1], the “cooperativity (n) of state II” value amounted to 1.3, the “mid-point (pK) of state II” value is 5.8, the “λmax in state I” value came to 347 nm and the “λmax in state III” value was found to be 337 nm. For the same substance, the “λmax in state II” value in data set [1] was 344 nm. Besides, the Norm. tumor weight in data set [2] was 55.3%.
In the case of “(Az)GGK[HA-Peg24]GGGK[HA-Peg24]PWRAYLELLFPTETLLLELLLA [2(HA-Peg24)-pHLIP4]”, in data set [1], the “cooperativity (n) of state II” value is reported as 0.7, the “mid-point (pK) of state II” value is listed as 5.8, the “λmax in state I” value is listed as 347 nm and the “λmax in state III” value stood at 336 nm. Besides, in data set [1], the “λmax in state II” value stood at 347 nm.
Take “AK[3xHA-Peg12]QNDDQNK[3xHA-Peg12]PWRAYLDLLFPTDTLLLDLLWA [2(3xHA-Peg12)-pHLIP3]”: in data set [1], the “cooperativity (n) of state II” value was 1.9, the “mid-point (pK) of state II” value came out at 4.8, the “λmax in state I” value is given as 351 nm and the “λmax in state III” value is listed as 337 nm. Besides, the “λmax in state II” value in data set [1] is listed as 351 nm. For the same substance, the Norm. tumor weight in data set [2] is 61.6%.
“AK[HA-Peg12]QNDDQNK[HA-Peg12]PWRAYLDLLFPTDTLLLDLLWA [2(HA-Peg12)-pHLIP3]”: in data set [1], the “cooperativity (n) of state II” value worked out at 1.9, the “mid-point (pK) of state II” value is given as 4.8, the “λmax in state I” value is recorded as 351 nm and the “λmax in state III” value is given as 337 nm. Further, in data set [1], the “λmax in state II” value came to 351 nm. In data set [2], this substance came in with a Norm. tumor weight of 61.3%.
With “AK[HA-Peg24]QNDDQNK[HA-Peg24]PWRAYLDLLFPTDTLLLDLLWA [2(HA-Peg24)-pHLIP3]”, in data set [1], the “cooperativity (n) of state II” value came to 0.9, the “mid-point (pK) of state II” value is 4.6, the “λmax in state I” value amounted to 351 nm and the “λmax in state III” value is listed as 337 nm. The “λmax in state II” value in data set [1] came to 350 nm. The Norm. tumor weight in data set [2] was 62.9%.
On to “Galα(1,3)Galβ(1,4)Glc-Peg4-NHC(O)-AADDQNPWRAYLDLLFPTDTLLLDLLWA-OH [Gal-pHLIP]”, for which the “reduction of tumor growth” value in data set [3] is 66%.
Turning to “K(N3)[HA-Peg12]GGGGGK(N3)[HA-Peg12]PWRAYLELLFPTETLLLELLLA [2(HA-Peg12)-pHLIP5]”, in data set [1], the “cooperativity (n) of state II” value was 0.9, the “mid-point (pK) of state II” value amounted to 6.2, the “λmax in state I” value came out at 347 nm and the “λmax in state III” value is given as 340 nm. Moreover, the “λmax in state II” value in data set [1] was 346 nm. The substance also came in with a Norm. tumor weight in data set [4] of 56.5%. For the same substance, in the data set with anti-HA antibodies, the “amount of anti-HA antibody in serum after treatment” value is listed as “dropped significantly (close to background level)”.

Source of the values: article PMC9853002, “Tumor treatment by pHLIP-targeted antigen delivery” (Frontiers in Bioengineering and Biotechnology, 2023).
